Results reported in the nanobody polyreactivity screen of Harvey et al. (2022).

Experiment: yeast display, Sf9 membrane polyspecificity reagent, FACS + sequencing; frameworks hold sequencing errors
Outline: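 Genes from sorted yeast were amplified by colony PCR, read by MiSeq 2 × 250 sequencing and filtered on CDR length. These cells carried a synthetic nanobody library in Saccharomyces cerevisiae BJ5465 and were sorted by FACS into low and high (top ~1%) gates on anti-HA and streptavidin fluorescence. Polyreactivity is labelled according to the gate of origin.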

| Sequence | polyreactivity (PSR sort gate) |
| --- | --- |
| QVQLVESGGGLVQAGGSLRLSCAASGSIFDYNAMGGYRQAPGKERELVAAISSGGSTYYADSVKGRFTISRDNAKNTVNLQMNSLKPEDTAVYYCAVKFWVVIQFDYWGQGTHVTVSS | low polyreactivity |
| QVQLVESGGGLVQAGGSLRLSCAASGSIFDYNAMGWYRQAPGKERELVASIRWSGGRTYYADSVKGRFTISRDNAKNTVYLQMNSLKPEDTAVYYCNRKPQEYVLQGSSNGYDYWGQGTQVTVSS | low polyreactivity |
| QVQLVESGGGLVQAGGSLRLSCAASGSIFDYNAMGWYTQAPGKERELVAAITSGGSTNYADSVKGRFTISRDNAKNTVYLQMNSLKPEDTAVYYCAADHDYYPSNLDYWGQGTQVTVSS | low polyreactivity |
| QVQLVESGGGLVQAGGSLRLSCAASGSIFDYNTMGWYRQAPGKERELVAVISGTGGSTYYADSVKGRFTISRGNAKNTVYLQMNSLKPEDTAVYYCAADTFVRNQWYLVEYWGQGTQVTVSS | low polyreactivity |
| QVQLVESGGGLVQAGGSLRLSCAASGSIFDYYAMGWYRQAPGKERELVAAISSSGARTSYADSVKGRFTISRDNAKNTVYLQMNSLKPEDTAVYYCAAPYRSLKTGRYDYWGQGTQVTVSS | high polyreactivity |
| QVQLVESGGGLVQAGGSLRLSCAASGSIFDYYAMGWYRQAPGKERELVAAISWSGGSTYYADSVKGRFTISRDNAKNTVYLQMNSLKPEDTAVYYCAALSLAYHEYDYWGLGTQVTVSS | high polyreactivity |
| QVQLVESGGGLVQAGGSLRLSCAASGSIFDYYAMGWYRQAPGKERELVADITSGGSTNYADSVKGRFTISRDNAKNTVYLQMNSLKPEDTAVYYCNALASRYPAYYYWGQGTQVTVSS | low polyreactivity |
| QVQLVESGGGLVQAGGSLRLSCAASGSIFDYYAMGWYRQAPGKERELVASINSSGTGTYYADSVKGRFTISRDNAKNTVYLQMNSLKPEDTAVYYCATRQAVGYSSGRGYGYWGQGTQVTVSS | low polyreactivity |
| QVQLVESGGGLVQAGGSLRLSCAASGSIFDYYAMGWYRQAPGKERELVASITWSGGRTSYADSVKGRFTISRDNAKNTVYLQMNSLKPEDTAVYYCAAKLWSYAYQHKRVWYYYWGQGTQVTVSS | high polyreactivity |
| QVQLVESGGGLVQAGGSLRLSCAASGSIFDYYAMGWYRQAPGKETEFVADICSSGTSTYYADSVKGRFTISRDNAKNTVYLQMNSLKPEDTAVYYCNSELDSWLSYVVAYFARFDYWGQGTQVTVSS | high polyreactivity |
| QVQLVESGGGLVQAGGSLRLSCAASGSIFDYYTMGWYRQAPGKERELVAAITRSGGRTYYADSVKGRFTISRDYAKNTDYLLMNSLKPEDTAVYNCSTGAVSRFGNGPYDFWGQGTQVTVSS | high polyreactivity |
| QVQLVESGGGLVQAGGSLRLSCAASGSIFEFNAMGWYRQAPGKERELVAAITWGGGSTYYADSVKGRFTISRDNAKNTVYLQMNSLKPEDTAVYYCNAAYGRYRYDYWGQGTQVTVSS | low polyreactivity |
| QVQLVESGGGLVQAGGSLRLSCAASGSIFEFNTMGWYRQAPGKERELVAAISSSGGRTYYADSVKGRFTISRDNAKNSVYLQMNSLKPEDTAVYYCNARRFVHNPDYDYWGQGTQVTVSS | high polyreactivity |
| QVQLVESGGGLVQAGGSLRLSCAASGSIFEGNAMGWYRQAPGKEREFVAAITKRGGSTYYADSVKGRFTISRDNAKITVYLQMNSLKTEDTAVYYCAKGYRRVFGPFYYWGQGTQVTVSS | low polyreactivity |
| QVQLVESGGGLVQAGGSLRLSCAASGSIFEGYAMGWYRQAPGKERELVAAISWSSARTYYADSVKGRFTISRDNAKNTVYLQMNSLKPEDTAVYYCNAVARNNRNSRQRIPYDYWGQGTQVTVSS | high polyreactivity |
| QVQLVESGGGLVQAGGSLRLSCAASGSIFEGYVMGWYRQAPGKERELVAAITTGGGSTYYADSVKGRFTISRDNAKKTVYLQMNSLKPEDTAVYYCAKDYWFGYEYWGQGTQVTVSS | low polyreactivity |
